Key:
[1] = target: human Mac-1 (integrin αMβ2, CD11b/CD18) (human) (UniProt P11215); test: flow cytometry, HEK293/Mac-1 cells (clone 1-4), PBS/MnCl2 (Mn2+)
[2] = target: human Mac-1 (integrin αMβ2, CD11b/CD18) (human) (UniProt P11215); test: flow cytometry, HEK293/Mac-1 cells (clone 1-4), PBS (Mock)
[3] = target: human Mac-1 (integrin αMβ2, CD11b/CD18) (human) (UniProt P11215); test: flow cytometry, HEK293/Mac-1 cells; MFI in PBS over MFI in PBS/MnCl2
[4] = target: human Mac-1 (integrin αMβ2, CD11b/CD18) (human) (UniProt P11215); test: flow cytometry, HEK293/Mac-1 cells, PBS (Mock), 10 µg/ml of this antibody; binding of reporter mAb KIM127 read
[5] = target: human Mac-1 (integrin αMβ2, CD11b/CD18) (human) (UniProt P11215); test: flow cytometry, HEK293/Mac-1 cells, PBS/MnCl2 (Mn2+), 10 µg/ml of this antibody; binding of reporter mAb m24 read
[6] = target: human Mac-1 (integrin αMβ2, CD11b/CD18) (human) (UniProt P11215); test: flow cytometry, HEK293/Mac-1 cells, PBS (Mock), 10 µg/ml of this antibody; binding of reporter mAb m24 read
[7] = target: human Mac-1 (integrin αMβ2, CD11b/CD18) (human) (UniProt P11215); test: flow cytometry, HEK293/Mac-1 cells, PBS/MnCl2 (Mn2+), 10 µg/ml of this antibody; binding of reporter mAb KIM127 read
[8] = target: human Mac-1 (integrin αMβ2, CD11b/CD18) (human) (UniProt P11215); test: flow cytometry, HEK293/Mac-1 cells, PBS (Mock); binding of reporter mAb m24 read; control IgG4, the reference set to 1
[9] = target: human Mac-1 (integrin αMβ2, CD11b/CD18) (human) (UniProt P11215); test: flow cytometry, HEK293/Mac-1 cells, PBS/MnCl2 (Mn2+); binding of reporter mAb KIM127 read; control IgG4, the reference set to 1
[10] = target: human Mac-1 (integrin αMβ2, CD11b/CD18) (human) (UniProt P11215); test: flow cytometry, HEK293/Mac-1 cells, PBS (Mock); binding of reporter mAb KIM127 read; control IgG4, the reference set to 1
[11] = target: human Mac-1 (integrin αMβ2, CD11b/CD18) (human) (UniProt P11215); test: flow cytometry, HEK293/Mac-1 cells, PBS/MnCl2 (Mn2+); binding of reporter mAb m24 read; control IgG4, the reference set to 1
[12] = target: human Mac-1 (integrin αMβ2, CD11b/CD18) (human) (UniProt P11215); test: flow cytometry, HEK293/Mac-1 cells; MFI in PBS over MFI in PBS/MnCl2; isotype control
[13] = target: human Mac-1 (integrin αMβ2, CD11b/CD18) (human) (UniProt P11215); test: flow cytometry, HEK293/Mac-1 cells (clone 1-4), PBS/MnCl2 (Mn2+); isotype control
[14] = target: human Mac-1 (integrin αMβ2, CD11b/CD18) (human) (UniProt P11215); test: flow cytometry, HEK293/Mac-1 cells (clone 1-4), PBS (Mock); isotype control

Row | Substance | Mn^2+ MFI [1] [MFI] | Mock MFI [2] [MFI] | Mock/Mn^2+ Ratio [3] | KIM127 (Expression relative to IgG4) (relative to IgG4) [4] | m24 (Expression relative to IgG4) (relative to IgG4) [5] | m24 (Expression relative to IgG4) (relative to IgG4) [6] | KIM127 (Expression relative to IgG4) (relative to IgG4) [7] | also measured
1 | CD11b activation-sensing mAb (CBRM1/5) (antibody) | 181000 | 143000 | 0.79 | – | – | – | – | –
2 | CD11b specific mAb (clone ICRF44) (antibody) | 801000 | 805000 | 1.01 | 0.94 | 0.66 | 0.66 | 0.75 | –
3 | IgG4 control (antibody) | – | – | – | – | – | – | – | m24 (Expression relative to IgG4) (relative to IgG4) [8]: 1; KIM127 (Expression relative to IgG4) (relative to IgG4) [9]: 1; KIM127 (Expression relative to IgG4) (relative to IgG4) [10]: 1; m24 (Expression relative to IgG4) (relative to IgG4) [11]: 1
4 | M1/70 (antibody) | – | – | – | 0.94 | 0.8 | 0.71 | 0.84 | –
5 | isotype control IgG (antibody) | – | – | – | – | – | – | – | Mock/Mn^2+ Ratio [12]: 1.01; Mn^2+ MFI [13]: 935 MFI; Mock MFI [14]: 941 MFI

From patent US20240084017A1
